Among the data in the RNAGym collection of RNA variant scans (doi:10.7554/elife.80360) are self-cleavage values, retold here.

First the molecules themselves.
B1: Hammerhead Ribozyme (parent)
chain: ACCGGAUGUGCUUUCCGGUCUGAUGAGUCCGUGAGGACGAAACAG

In the series the parent is B1. Put plainly: self-cleavage, relative activity (ratio to wild type); higher = more cleavage; co-transcriptional.
As for U28C G45U, the self-cleavage was found to be 0.727.
Under U32G C38A stands 0.674; under U7G U32C, 1.03; under A1C C29U, 0.402.
As for C3A G10U, the self-cleavage was 0.921.
Consider G5U G22C, for which the self-cleavage came out at 0.251.
C2A G25C: the self-cleavage worked out at 0.359.
On to U28A G31A, for which the self-cleavage is 0.856.
Consider G39U A41G, for which the self-cleavage was determined as 0.327.
For G36C A44C, the self-cleavage was 0.383.
Then G8A G45U, with 0.859; and U24A G27U, with 0.508; and G27A G36A, with 0.401.
For U9G A23G, the self-cleavage was 0.385.
Consider U12A U19C, for which the self-cleavage stood at 0.366.
As for C3G A37U, the self-cleavage stood at 0.327.
Then C16A A41C, with 0.404; and U13A U32G, with 1.3; and C2A U21G, with 0.291.
Under G8C U32G stands 1.23; under U12C U28G, 0.543; under U12C U28C, 1.35.
Consider C2U A41G, for which the self-cleavage was found to be 0.389.
Regarding A1G C30A, the self-cleavage was 1.3.
For the variant C11A C20U, the self-cleavage turned out to be 0.681.
Turning to G17A G35C, the self-cleavage came to 0.548.
As to G31C A34G, the self-cleavage came to 0.994.
Turning to C15G A40U, the self-cleavage turned out to be 0.358.
In the case of C15G A40C, the self-cleavage was determined as 0.326.
Regarding C16U C43A, the self-cleavage came to 0.352.
Regarding U13G C30U, the self-cleavage was found to be 0.786.
With C20A G31U, the self-cleavage was determined as 0.475.
Under G4C G36U stands 0.281.
Under G25C A41C stands 0.359.
Take G18C G45U: the self-cleavage was determined as 0.374.
Consider U19A U21A, for which the self-cleavage turned out to be 0.292.
For C11G U24G, the self-cleavage was found to be 1.3.
As for A1U A41G, the self-cleavage is 0.414.
As to G18U A23C, the self-cleavage was 0.367.
For the variant A26U, the self-cleavage worked out at 0.848.
On to G33C A40G, for which the self-cleavage is 0.339.
As to A26U C38U, the self-cleavage was found to be 0.783.
For the variant U7C U32C, the self-cleavage was found to be 0.949.
As for G36U A41U, the self-cleavage worked out at 0.372.
For the variant U12G A34U, the self-cleavage stood at 0.897.
With U14A G18C, the self-cleavage turned out to be 0.456.
For the variant A41C A44G, the self-cleavage was determined as 0.594.
Turning to C2U U13A, the self-cleavage worked out at 1.52.
As to G8U G45C, the self-cleavage is 0.768.
As to G17U A44U, the self-cleavage is 0.469.
For G17U A44G, the self-cleavage came out at 0.877.
Then C16G C38A, with 0.453.
For the variant A6U G31C, the self-cleavage was determined as 0.704.
Regarding U28C A40G, the self-cleavage amounted to 0.356.
For G5U U24C, the self-cleavage is 0.922.
Consider U7C G45C, for which the self-cleavage stood at 0.454.
Regarding U28A C43A, the self-cleavage amounted to 0.292.
Take U7C U24A: the self-cleavage turned out to be 1.4.
As to G35U G39U, the self-cleavage was 0.42.
Then G5U C15A, with 1.43.
With G35C G39C, the self-cleavage came to 0.365.
Turning to G35C G39U, the self-cleavage is 0.307.
With U14C U21C, the self-cleavage was 0.504.
Then U24G C29G, with 0.781; and U24G C29U, with 0.987; and G18A U19A, with 0.367.
For the variant U14G U24A, the self-cleavage is 1.03.
Take A34U G45U: the self-cleavage worked out at 0.625.
G4C G31C: the self-cleavage was determined as 0.768.
Take A6G U13C: the self-cleavage came to 0.722.
As to A6G U13G, the self-cleavage is 0.778.
For G5C C38U, the self-cleavage is 0.479.
Then C20A G45C, with 0.414; and C20A G45U, with 0.357.
Regarding G8A G25C, the self-cleavage is 0.276.
On to G31A A34C, for which the self-cleavage worked out at 0.991.
Turning to G4C A40U, the self-cleavage was 0.255.
Then G27U C43A, with 0.374; and G33A A34G, with 0.484.
For C30U G35C, the self-cleavage was determined as 0.758.
Under C20U U24A stands 0.799; under A1C G36U, 0.401.
For the variant U24A G35C, the self-cleavage turned out to be 0.851.
Turning to C11G U28G, the self-cleavage worked out at 0.849.
Then C2A U24G, with 0.644; and G35C A40G, with 0.28.
G5C C15U: the self-cleavage is 1.31.
Turning to U24G A44G, the self-cleavage was 1.49.
G10A A41U: the self-cleavage was determined as 0.386.
Take G10A U19A: the self-cleavage worked out at 0.347.
As for A23G G33A, the self-cleavage was found to be 0.465.
Then U21C A37C, with 0.907.
In the case of G5C U9G, the self-cleavage turned out to be 0.467.
U9A U12C: the self-cleavage was 0.947.
For the variant C29G A37U, the self-cleavage was 0.587.
As for A40U A41G, the self-cleavage was found to be 0.27.
Take G39U A40C: the self-cleavage was determined as 0.295.
G4A C15U: the self-cleavage was 0.532.
Then U19A G27U, with 0.26.
Regarding U7A C20U, the self-cleavage was 0.345.
As for G36A G45U, the self-cleavage came out at 0.452.
G8C U28C: the self-cleavage was found to be 1.16.
As to G5A G22U, the self-cleavage came to 0.325.
Then C20A A41G, with 0.309.
In the case of C2G G27C, the self-cleavage is 0.303.
For the variant G18U C30A, the self-cleavage was 0.556.
Turning to U7C A23G, the self-cleavage is 0.454.
Take U12G G22U: the self-cleavage worked out at 0.37.
Under G27C C38G stands 0.426; under A26G A41G, 0.284; under U12G G36A, 0.518.
Then A1G G10A, with 1.92; and G5A C38U, with 0.935.
As for A23C G33A, the self-cleavage was 0.621.
In the case of G22U G45C, the self-cleavage was determined as 0.348.
Regarding C20U A42G, the self-cleavage is 0.258.
With U14G G25U, the self-cleavage was 0.28.
For the variant U9G U28A, the self-cleavage turned out to be 0.833.
As for C20U G33U, the self-cleavage worked out at 0.762.
Under U9G G17U stands 0.316; under C2A G10U, 0.88.
Under C3U U7A stands 1.26.
As to C3U G8C, the self-cleavage turned out to be 0.936.
G10U U12C: the self-cleavage is 0.689.
On to U13A A41C, for which the self-cleavage was 0.368.
As for C11G C43G, the self-cleavage came to 0.29.
In the case of A23C G39C, the self-cleavage was 0.357.
Under U19G G31A stands 0.553.
Under U28G G33A stands 1.02; under U7G G25A, 0.272; under C29G G31U, 0.777.
As to A23C G35U, the self-cleavage was found to be 0.408.
C3A G17C: the self-cleavage was 0.708.
Under G10A C38U stands 1.33; under G17A A34G, 0.56; under G10A A42C, 0.406.
Turning to A1U U12A, the self-cleavage was 0.66.
Under A26U C43G stands 0.415; under C3U C29G, 0.594.
For the variant C3U A37G, the self-cleavage came to 0.799.
Then G4U A41G, with 0.263; and A23U A41C, with 0.33.
With U13G A41G, the self-cleavage was found to be 0.423.
Then G4A U9A, with 0.458; and G4A U9C, with 0.47.
In the case of A26U A41G, the self-cleavage was 0.434.
With A26U A41U, the self-cleavage was 0.29.
A1C G25U: the self-cleavage was determined as 0.377.
G27U G33A: the self-cleavage stood at 0.754.
As to G27U G33U, the self-cleavage was found to be 0.535.
As for U9C C29G, the self-cleavage was determined as 0.601.
Under A1C C30U stands 0.364.
With U21C G22C, the self-cleavage is 0.39.
For the variant U21G C38U, the self-cleavage is 0.374.
Consider C30G G35A, for which the self-cleavage was found to be 1.06.
Then G25A A37G, with 0.351.
Under G27C A34C stands 0.411; under C3G A40G, 0.341; under A1C U24A, 0.471.
Then G5A G17C, with 0.434; and U19A A41C, with 0.391.
Take G5U G33U: the self-cleavage is 1.06.
As for G17A A26G, the self-cleavage amounted to 0.297.
Under C3A U28G stands 0.34.
As to U19G G25A, the self-cleavage was determined as 0.275.
Then G33U G39U, with 0.343.
As for G27A U28C, the self-cleavage turned out to be 0.645.
